Stoichiometry N data for one substance are collected here from publication PMC2109139.

This assay concerns the target subunit of the Mo-Fe protein from Azotobacter vinelandii nitrogenase (Azotobacter vinelandii (strain OP)) (UniProt P07328). Briefly: electron microscopy.

With “subunit of the Mo-Fe protein from Azotobacter vinelandii nitrogenase (from UniProt P07328 1-492) (natural protein)”, the stoichiometry N stood at 4.
